# According to patent publication US20210155689A1 (SHANGHAI PHARMAEXPLORER, published 2021):
# Changes are numbered by the printed parent chain.
# T1: monkey LAG-3 on cells (HEK293-cLAG-3 stable cell line) (monkey, UniProt P18627 24-525 (human entry))
# T1 construct: Full-length monkey (Chinese monkey) LAG-3 gene expressed on HEK293 cells
# T1 chain: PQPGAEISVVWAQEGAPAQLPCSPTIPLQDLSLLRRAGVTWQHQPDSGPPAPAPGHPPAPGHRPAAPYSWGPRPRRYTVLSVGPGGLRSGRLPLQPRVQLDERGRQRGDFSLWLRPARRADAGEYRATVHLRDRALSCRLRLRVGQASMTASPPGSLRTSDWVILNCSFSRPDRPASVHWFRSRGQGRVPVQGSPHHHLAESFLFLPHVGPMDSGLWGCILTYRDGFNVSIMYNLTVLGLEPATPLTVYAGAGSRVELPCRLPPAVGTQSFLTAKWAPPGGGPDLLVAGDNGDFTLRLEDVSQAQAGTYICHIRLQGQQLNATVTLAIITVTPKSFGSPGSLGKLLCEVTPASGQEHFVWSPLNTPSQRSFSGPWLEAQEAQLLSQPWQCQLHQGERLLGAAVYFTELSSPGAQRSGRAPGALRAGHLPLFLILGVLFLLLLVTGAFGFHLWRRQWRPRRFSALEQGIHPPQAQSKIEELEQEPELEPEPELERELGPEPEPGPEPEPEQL
# T2: human LAG-3 protein with hFc tag (hLAG-3-hFc protein) (human, UniProt P18627 23-450)
# T2 construct: also called immunogen 1; LAG-3 extracellular domain protein; not shown: human IgG Fc fragment (hFc) of the pCpC vector
# T2 sequence: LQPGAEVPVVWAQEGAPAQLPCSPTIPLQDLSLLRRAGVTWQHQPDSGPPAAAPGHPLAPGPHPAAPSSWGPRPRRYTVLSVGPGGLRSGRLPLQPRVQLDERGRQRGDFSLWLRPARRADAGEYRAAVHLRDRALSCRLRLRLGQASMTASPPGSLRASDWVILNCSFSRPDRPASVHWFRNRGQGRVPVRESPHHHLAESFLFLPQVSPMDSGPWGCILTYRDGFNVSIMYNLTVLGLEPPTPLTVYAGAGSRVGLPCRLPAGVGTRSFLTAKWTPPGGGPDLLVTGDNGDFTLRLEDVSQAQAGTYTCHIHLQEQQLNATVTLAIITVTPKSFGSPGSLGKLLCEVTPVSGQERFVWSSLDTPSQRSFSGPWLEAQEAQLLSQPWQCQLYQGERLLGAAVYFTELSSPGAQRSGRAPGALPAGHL
# T3: human LAG-3 (full length, on the cell surface) (human, UniProt P18627 23-525)
# T3 construct: Full-length human LAG-3 expressed on cells; also called HEK293-hLAG-3; HEK293 cells transfected with LAG-3 gene
# T3 sequence: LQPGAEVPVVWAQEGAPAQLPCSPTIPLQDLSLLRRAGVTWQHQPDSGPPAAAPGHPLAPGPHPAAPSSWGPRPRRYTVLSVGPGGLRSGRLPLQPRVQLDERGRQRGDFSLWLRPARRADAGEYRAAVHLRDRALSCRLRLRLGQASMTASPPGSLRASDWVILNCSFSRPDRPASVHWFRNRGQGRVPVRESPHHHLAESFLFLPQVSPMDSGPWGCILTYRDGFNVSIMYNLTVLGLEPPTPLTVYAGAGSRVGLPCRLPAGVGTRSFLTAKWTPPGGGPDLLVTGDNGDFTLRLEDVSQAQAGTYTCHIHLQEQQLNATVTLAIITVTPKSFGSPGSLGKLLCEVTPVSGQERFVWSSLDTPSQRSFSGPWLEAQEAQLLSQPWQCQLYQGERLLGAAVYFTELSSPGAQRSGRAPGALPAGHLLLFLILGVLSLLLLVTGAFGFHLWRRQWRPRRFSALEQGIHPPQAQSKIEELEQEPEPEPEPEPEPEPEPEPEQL
# B1: 556F6B8 mouse-human chimeric antibody (antibody, V domains shown)
# VH: RVQLKQSGPGLVQPSQSLSITCTVSGFSLIKYGVHWVRQSPGEGLEWLGVIWRGGITDYNAAFMSRLSITKDNSKSQVFFKMNSLQADDTAIYYCAKWDGPLAMDYWGQGTSVTVSS
# VL: DIVMTQSHKFLSTSVGDRVSITCKASQDVGTTVAWYQQKPGQSPKLLIYWASTRHTGVPDRFTGSGSGTDFTLTISNVQSEDLADYFCQQYSSYPYTFGGGTKLEIK
# notes: also called mAb123-556F6B8; 556F8B8
# B2: 105F1E10 mouse-human chimeric antibody (antibody, V domains shown)
# VH: EVQLQQSGPELVKPGASVKMSCRASGYTFTDFKMHWMKQSHGKSLEWIGYIAPNNGGTAYNQKFRGKATLTVNESSNTAYMELRSLTSEDSAVYYCVDWDDVDYWGQGTTLTVSS
# VL: DIKMTQSPSSMYASLGERVTITCKASQDINSYLSWFQQKSGKSPKTLIYRANRLVDGVPSRFSGSGSGQDYSLTISSLEYEDMGIYYCLQYVEFPLTFGAGTKLELK
# notes: also called mAb009-105F1E10
# B3: 405B8H3 mouse-human chimeric antibody (antibody, V domains shown)
# VH: QVQLQQSGAELVRPGASVTLSCKASGYTFTDYEMHWVKQTPVHGLEWIGATDPETGNSAYNQKFKGKAIMTADKSSSTAYMELRSLTSEDSAVYYCISTGWNDWGQGTSLTVSS
# VL: B2 VL with S40P, N52D, V55L, E81G, V92D, L96Y, A100G, L106I
# notes: also called mAb103-405B8H3
# B4: 409D4E10 mouse-human chimeric antibody (antibody, V domains shown)
# VH: B3 VH with Y27N, G56D, S58T, M70L, A72T, S98T, T99S
# VL: B2 VL with S40P, V55L, V92N, L96Y, A100G, L106I
# notes: also called mAb112-409D4E10
# B5: 409B11E12 mouse-human chimeric antibody (antibody, V domains shown)
# VH: B3 VH with P41T, G56S, N57Y, M70L, S98A
# VL: B2 VL with I2L, S40P, V55L, V92D, L96Y, A100G, L106I
# notes: also called mAb104-409B11E12
# B6: 556F6B8 (LAG-3 mouse-human chimeric antibody) (antibody, V domains shown)
# VH: B1 VH
# VL: B1 VL
# notes: also called 556F8B8
# B7: 405B8H3 (LAG-3 mouse-human chimeric antibody) (antibody, V domains shown)
# VH: B3 VH
# VL: B2 VL with S40P, N52D, V55L, E81G, V92D, L96Y, A100G, L106I
# notes: also called mouse-human chimeric antibody 405B8H3
# B8: 105F1E10 (LAG-3 mouse-human chimeric antibody) (antibody, V domains shown)
# VH: B2 VH
# VL: B2 VL
# B9: 409D4E10 (LAG-3 mouse-human chimeric antibody) (antibody, V domains shown)
# VH: B3 VH with Y27N, G56D, S58T, M70L, A72T, S98T, T99S
# VL: B2 VL with S40P, V55L, V92N, L96Y, A100G, L106I
# B10: 409B11E12 (LAG-3 mouse-human chimeric antibody) (antibody, V domains shown)
# VH: B3 VH with P41T, G56S, N57Y, M70L, S98A
# VL: B2 VL with I2L, S40P, V55L, V92D, L96Y, A100G, L106I
# B11: 556F6B8 (mouse antibody purified from hybridoma) (antibody, V domains shown)
# VH: B1 VH
# VL: B1 VL
# notes: also called mAb123-556F6B8
# B12: 405B8H3 (mouse antibody purified from hybridoma) (antibody, V domains shown)
# VH: B3 VH
# VL: B2 VL with S40P, N52D, V55L, E81G, V92D, L96Y, A100G, L106I
# notes: also called mAb103-405B8H3; 405B81-13
# B13: 105F1E10 (mouse antibody purified from hybridoma) (antibody, V domains shown)
# VH: B2 VH
# VL: B2 VL
# notes: also called mAb009-105F1E10
# B14: 409B11E12 (mouse antibody purified from hybridoma) (antibody, V domains shown)
# VH: B3 VH with P41T, G56S, N57Y, M70L, S98A
# VL: B2 VL with I2L, S40P, V55L, V92D, L96Y, A100G, L106I
# notes: also called mAb104-409B11E12
# B15: 409D4E10 (mouse antibody purified from hybridoma) (antibody, V domains shown)
# VH: B3 VH with Y27N, G56D, S58T, M70L, A72T, S98T, T99S
# VL: B2 VL with S40P, V55L, V92N, L96Y, A100G, L106I
# notes: also called mAb112-409D4E10
# Target: T1, monkey LAG-3 on cells (HEK293-cLAG-3 …)
# Assay: FACS, HEK293-cLAG-3, antibody 8.000 nM
# Text: (§1) The pIRES plasmid with the monkey-derived full-length gene was transfected into the HEK293 cell line to construct a HEK293 stable cell line containing monkey LAG-3 (herein referred to as HEK293-cLAG-3 stable cell line). The HEK293-hLAG-3 stable cell line and HEK293-cLAG-3 stable cell line were expanded in a T-75 cell culture flask to a 90% confluence. The medium was aspirated, and the cells were washed with HBSS (Hanks' Balanced Salt Solution) 1-2 times, then treated with a enzyme-free cell dissociation fluid (Versene solution: Life technology) and the cells were collected. The cells were washed with HBSS buffer for 1-2 times. After counted, the cells were diluted with HBSS to 1-2×10⁶ cells per ml, added with 1% goat serum blocking solution, incubated on ice for 20-30 minutes, and then washed with HBSS for 2 times by centrifugation. The collected cells were suspended in the FACS buffer (HBSS+1% BSA) to 2×10⁶ cells/ml, added as 100 microliters per well to a 96-well FACS reaction plate, added with 100 microliters per well of the antibody sample to be tested, incubated on ice for 1-2 hours. The plate was washed twice with the FACS buffer by centrifugation, added with 100 microliters of fluorescent (Alexa 488)-labeled secondary antibodies per well, and incubated on ice for 0.5-1.0 hours. The plate was washed 2-3 times with FACS buffer by centrifugation, added with 100 μl fixative solution (4% Paraformaldehyde) per well to suspend the cells. 5-10 minutes later, it was washed 1-2 times with FACS buffer by centrifugation. The cells were suspended with 100 microliters of FACS buffer, FACS (FACSCalibur, BD) was used for detection and the results were analyzed.
row,Binder,Mean fluorescence intensity
1,B1,42.5
2,B2,37.9
3,B3,69.3
4,B4,61.5
5,B5,73.1

# Target: T1, monkey LAG-3 on cells (HEK293-cLAG-3 …)
# Assay: FACS, HEK293-cLAG-3, antibody 1.600 nM
# Text: as §1
row,Binder,Mean fluorescence intensity
1,B1,19.2
2,B2,14.7
3,B3,29.4
4,B4,25.8
5,B5,32.8

# Target: T2, human LAG-3 protein with hFc tag …
# Assay: ELISA, hLAG-3-hFc coated; 0.0067 nM
# Protocol: The plate was sealed with plastic film and incubated overnight at 4° C. The plate was washed 2 times with the plate washing solution (PBS+0.01% Tween20) on the next day, and added with the blocking solution (PBS+0.01% Tween20+1% BSA) and blocked at room temperature for 1-2 hours. The blocking solution was poured out, and the plate was added with 50-100 μl of the antibody sample to be tested to each well, incubated at 37° C. for 1-2 hours, and washed 2-3 times with a plate washing solution (PBS+0.01% Tween20). HRP (horseradish peroxidase) labeled secondary antibody was added, and the plate was incubated at 37° C. for 1-2 hours, and washed 2-3 times with a plate washing solution (PBS+0.01% Tween20). 100 μl of TMB substrate was added to each well. After incubated at room temperature for 15-30 minutes, the plate was added with 100 μl of stop solution (1.0N HCl) to each well.
row,Binder,OD450 [OD450]
1,B6,0.38
2,B7,0.57
3,B8,0.3
4,B9,0.63
5,B10,0.47

# Target: T3, human LAG-3 (full length, on the cell …)
# Assay: FACS, HEK293-hLAG-3; 0.320 nM
# Text: as §1
row,Binder,Mean fluorescence intensity [MFI]
1,B11,16.1
2,B12,24.7
3,B13,23.3
4,B14,13.4
5,B15,13
